{"source": "paper PMC11380581", "about": "(Cell, 2024)", "molecules": {"B1": {"name": "NRC4 L9E D478V (NLR Required for Cell Death 4 with the L9E and D478V mutations) (natural protein, N. benthamiana)", "chain": "MADAVVNFEVENLLQLLTDNVKLIGSAKGELENLLKEVQHLKGFLDDAAKLPSDSEQWKVLVEEIQKTVHTAEDAVDKFVVQAKLHKEKNKMARILDVGHLATVRNLAAEVKGIHDQVKELRLNNQALQARPTLELPKKGSSETTQQGPALEDDEVVGFDEEANKVINRLVKESKDLDIIPVVGMPGLGKTTLARKIYKDPKLSYEFFGVHWVYVGQSYKIKDVFLNILKFFTRRTEDYQHEDVDALAKVIAGFINKGGRCLICLDDVWETKVIDYVKTIFPENEKGHRVMMTTRNKVLATYANSDPHDLKFLTPKESFELLVKRVFGKKPCPKDLVGHGESIAGKCGGVPLAVVVIAGALRGRPNTSDWIRVERNVVQHLYTNSEESCLKFVEMSYDHLPQEVQTCFLYCGVFPRGFDIPSWKVIRLWIAEGLIKPQESYTLEEIAEFYLNDLVNRNLVILQQKRSDGQIKTCRLHVMLHQFCKKEASNKWLFQEVSLTPDQAIPIEDPNKSRRLCIQPSNLKDFLSKKPSAEHVRSFYCFSSKEKQIRGLTPNDIKLIHKAFPLVRVLDVESLKFLFSKDFNQLFHLRYIAISGDFNAIPLTFGKFWNLQTLILNTSTSESTLDVKADIWNMLQLRHLHTNIPAKLQPPTATTSGKASCLQTLCMVAPESCEKEVLAKACHLKKLSIRGQMAAFLGAYKGGINNLVELKCLEQLKLLNDVLYMNKAPHLPQTFSQLVRTVKKLTLTNTRFAWSEADKLGQLESLEILKFKENAFAGDSWKPKMGFSALRVLWIERAEFETWEASEINFPVLRNLVLMSCDKLETVPFELANLSDLYEMRLENTSKAVKSAKAILESKTDKNIKFNLTIFPPEAGSKATQ"}, "B2": {"name": "NRC4 L9E (natural protein, N. benthamiana)", "chain": "B1 chain with V478D"}, "B3": {"name": "wild type NRC4, Flag-tagged (natural protein, N. benthamiana)", "chain": "B1 chain with E9L, V478D"}, "B4": {"name": "NRC0-EEE-3XFlag (active NRC0) (natural protein)", "chain": "MADAVVEFELLNEKQLELYHVDLLSGVKDEVESLHRELSLMKAFLKDSREKRSEYEYVRELVSQITIVAYEAEDIIDTFVTNAAMQKARSTVRRAFHVFDHSSKLRNVAKEIESIKVKVKEIYDKKMFGIQSLHGGESSHRSPPQKRVPMVEEENVVGFDDEARKISSRLTNGSEELEIISIVGMGGLGKTTLAKKVYTDSSIEFHFYNRAWIYVSQLYSRKEVFLGILDSLSLITDEMYKMNDEKLAGELFSHLRSKRYLVVIDDVWTMEAWDDLQMAFPKTATGSRILLTTRNTEVALHANPEGLPHHLRFLTHEESWELLSKKVFRKGICPLELEDIGLQIAKKCYGLPLAIVVVSGLLLKKEKTRDWWKKIANDVSSYVARDPKQCMDVLALSYKHLPDHLKVCFIYFGVFPEDFEIPVWKLLRLWTSEGFVQKMGQECLEDTAEEYLEDLVDRNLVLVAKKRASGRIKTCRIHDMLRDLSVKMGSEEKFLEVFKESAQNHSLSPISKYHRRLCVHSHFLDFITSRPFGPNVRSFLCFASEEMELLREHTSFLHEAFRLVRVLDLKYINFPRFPTEIVQLVHLRYIALSGNFRVLPASISKLWNLETLIVGTKSRELDIQVDIWKMSQFKHLYTSGLSCLRGPPAKTRKDNADPFVRRNIQTISTVLPDCCKENILARTPGLRKLGIRGKLATLVATNGDSSLFDNLAKLDNLETLKLLNDTFPLPPSQCQIPGLPQSYKFPPNLKKLTLSDTFLDWSHISTLGMLPNLEVLKLKDYAFKGTQWEPLDGGFRLLRVLHIGRTNLEHWNASGHHFPRLQQVFLKHCSSLNEIPFGLVEVSSLQNIELFWPTPAAAASARIIQQEKQEGDIKDNVFKLVIYPPDI"}}, "key": {"[1]": {"target": "Flag-tagged NRC4 co-expressed with HA-tagged Bs2 and AvrBs2 (Figure S6F) (N. benthamiana)", "experiment": "native gel or EMSA"}, "[2]": {"target": "NRC3-L21E-3xFlag (active NRC3)", "experiment": "negative-stain EM"}, "cryo-EM structure [3]": {"target": "the molecule itself", "experiment": "cryo-EM structure"}, "cryo-EM structure [4]": {"target": "the molecule itself", "experiment": "cryo-EM structure", "remark": "listed apart in the source"}, "negative-stain EM": {"target": "the molecule itself", "experiment": "negative-stain EM"}, "[5]": {"target": "the molecule itself", "experiment": "native gel or EMSA + other: negative-stain EM"}}, "note": "Where a chain is given by its changes, count along the chain named. Names and notes keep the numbering of the source."}
{"molecule": "Flag-tagged NRC4 co-expressed with HA-tagged Bs2 and AvrBs2 (Figure S6F) (from UniProt A0A5J6DCT7 1-881) (natural protein)", "values": [{"measurement": "stoichiometry N", "setting": "[1]", "result": 6}]}
{"molecule": "NRC3-L21E-3xFlag (active NRC3) (natural protein)", "values": [{"measurement": "stoichiometry N", "setting": "[2]", "result": 6}]}
{"molecule": "B1", "values": [{"measurement": "stoichiometry N", "setting": "cryo-EM structure [3]", "result": 12}, {"measurement": "stoichiometry N", "setting": "cryo-EM structure [4]", "result": 6}]}
{"molecule": "B2", "values": [{"measurement": "stoichiometry N", "setting": "negative-stain EM", "result": 6}]}
{"molecule": "B3", "values": [{"measurement": "stoichiometry N", "setting": "[5]", "result": 2}]}
{"molecule": "B4", "values": [{"measurement": "stoichiometry N", "setting": "negative-stain EM", "result": 6}]}
